T1: N-CEA V39A (human, UniProt P06731 34-144, V39A)
T1 sequence: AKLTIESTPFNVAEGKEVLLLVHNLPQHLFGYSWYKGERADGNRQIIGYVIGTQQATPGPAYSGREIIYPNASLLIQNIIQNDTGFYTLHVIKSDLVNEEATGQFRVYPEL

B1: N-CEA L95C (domain or fragment)
chain: T1 sequence with A40V, L96C
B2: N-CEA V39C mutant (domain or fragment)
chain: T1 sequence with A40C
B3: N-CEA F29R (domain or fragment)
chain: T1 sequence with F30R, A40V
B4: N-CEA Q76A (domain or fragment)
chain: T1 sequence with A40V, Q77A
B5: N-CEA D40A (domain or fragment)
chain: T1 sequence with A40V, D41A
B6: N-terminal domain of carcinoembryonic antigen (N-CEA) (domain or fragment)
chain: T1 sequence with A40V
B7: N-CEA F29I (domain or fragment)
chain: T1 sequence with F30I, A40V
B8: N-CEA L95A (domain or fragment)
chain: T1 sequence with A40V, L96A
B9: N-CEA L74A (domain or fragment)
chain: T1 sequence with A40V, L75A
B10: N-CEA H89Q (domain or fragment)
chain: T1 sequence with A40V, H90Q
B11: N-CEA Q44R (domain or fragment)
chain: T1 sequence with A40V, Q45R
B12: N-CEA I91A (domain or fragment)
chain: T1 sequence with A40V, I92A
B13: N-CEA S32N (domain or fragment)
chain: T1 sequence with S33N, A40V
B14: N-terminal domain of CEACAM1 (N-CEACAM1) (domain or fragment)
chain: QLTTESMPFNVAEGKEVLLLVHNLPQQLFGYSWYKGERVDGNRQIVGYAIGTQQATPGPANSGRETIYPNASLLIQNVTQNDTGFYTLQVIKSDLVNEEATGQFHVYP
B15: N-terminal domain of CEACAM6 (N-CEACAM6) (domain or fragment)
chain: KLTIESTPFNVAEGKEVLLLAHNLPQNRIGYSWYKGERVDGNSLIVGYVIGTQQATPGPAYSGRETIYPNASLLIQNVTQNDTGFYTLQVIKSDLVNEEATGQFHVYP

Changes are numbered by the printed parent chain. Names may count otherwise. Where two headings read alike, the source gives them in different places.

Data set [1] concerns the target TMR labeled H27C N-CEA mutant (human) (UniProt P06731). Nature of the data set: absorbance of tetramethylrhodamine dimers.
The data set “SEC” deals with the molecule itself. Nature of the data set: SEC.
The data set “cross-linking” deals with the molecule itself. Nature of the data set: cross-linking.
For data set [2], the target named is B6. Briefly: SPR.
The data set “AUC” concerns the molecule itself. Briefly: AUC.
For the data set “N-CEA F29R”, the target named is B3. Nature of the data set: SPR.
The target of the data set “N-CEA S32N” is B13. Briefly: SPR.
The data set “N-CEA Q44R” has as its target B11. Nature of the data set: SPR.
Another data set concerns the target T1, N-CEA V39A. Briefly: SPR.
The target of data set [3] is B6. Nature of the data set: SPR. The source holds these as a separate data set.
Data set [4] deals with B6. Briefly: SPR. This is another data set of the same source.

On to “DraE monomer (DraE-dsc) (natural protein)”, for which the 518/555 absorbance ratio of TMR-labeled N-CEA after dilution with DraE in data set [1] worked out at 0.48.
For the molecule B1, in the data set “SEC”, the “stoichiometry N” value was 2.
In the case of B2, the “stoichiometry N” value in the data set “cross-linking” worked out at 2.
The molecule B3 had a Kd in data set [2] of roughly 200 µM.
For B4, the “stoichiometry N” value in the data set “SEC” stood at 2.
Regarding B5, the “stoichiometry N” value in the data set “SEC” worked out at 2.
As for B6, the Kd in the data set “AUC” was determined as 0.8 µM. Besides, the “stoichiometry N” value in the data set “SEC” was found to be 2.
For B7, the “stoichiometry N” value in the data set “SEC” came out at 2.
For the molecule B8, in the data set “SEC”, the “stoichiometry N” value is 2.
The same measure, in the same setting: with B9 the figure was 2.
Turning to B10, in “SEC”, the “stoichiometry N” value worked out at 2.
As to B11, in data set [2], the Kd is roughly 130 µM.
On the same count and under the same terms, for B12 the value was 55 ± 6 µM; for B13, roughly 200 µM.
As to B14, the Kd with N-CEA F29R was roughly 100 µM; in the data set with N-CEA S32N, roughly 100 µM; with N-CEA Q44R it was 72 ± 9 µM; with N-CEA V39A, roughly 100 µM.
For B15, the Kd in data set [3] was 65 ± 7 µM; in data set [4] it was roughly 100 µM; with N-CEA F29R it was roughly 200 µM; in the data set with N-CEA S32N, roughly 200 µM; with N-CEA Q44R, 28 ± 3 µM.

The record behind these values is PMC2628979 (Molecular microbiology, 2007).
